Consider six molecules from US20220281959A1 (published 2022).

Substitutions are numbered along the chain they refer to. Ends that are not written are not given here.

First the molecules themselves.
T1: BSA-PEP3 peptide (also: conjugated to BSA)
T1 peptide: PWNASWSNKSLDDIW

B1: anti-PEP3 mAb 3A2 (antibody, V domains shown)
VH: QVQLQQPGAELVKPGASVKLSCKASGYIFTNYWMHWVRQRPGQGPEWIGMIHPNRGDLHYSEKFNNKATLTVDKSSSTAYMQLNSLASEDSAVYFCARAGLGVFDYWGQGSTLTVSS
VL: DVVMTQTPLSLPVSLGDQVSMSCRSSQSIEHSNRNTYLEWYLHKPGQAPQLLIYGVSNRFTGVPDRFSGSGSGTDFTLKISRVEAEDMGVYHCLQGTHVPFTFGSGTKLEIK
B2: anti-PEP3 mAb 15B4 (antibody, V domains shown)
VH: QVQLQQSGPELVRPGTSVKISCKAPGYSFTSHWMQWLRQRPGQGLEWIGEIFPGSGKTYYNEKFKDKATLTADTSSTTVYMQFSSLTSEDSAVYFCASDYDGGDYWGQGTTLTVSS
VL: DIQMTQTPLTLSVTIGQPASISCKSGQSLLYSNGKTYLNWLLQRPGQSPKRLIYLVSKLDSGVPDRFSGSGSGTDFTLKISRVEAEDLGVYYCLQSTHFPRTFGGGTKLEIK
B3: anti-PEP3 mAb 9B12 (antibody, V domains shown)
VH: QVQLQQSGPELVKPGASVKISCKASGYGFSDSWMNWVKQRPGKGLDWIGRIYPGDGDTDYNGKFKDKATLTADKSSTTAYMQLSSLTSEDSAVYFCAYLGHWGQGTLVTVSA
VL: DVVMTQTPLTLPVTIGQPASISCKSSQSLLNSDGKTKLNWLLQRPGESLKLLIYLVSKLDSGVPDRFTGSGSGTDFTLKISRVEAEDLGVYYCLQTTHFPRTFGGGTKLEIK
B4: anti-PEP3 mAb 5E12 (antibody, V domains shown)
VH: QIQLVQSGPELKKPGETVKISCKASGYTFRTYGMSWVKQAPGKGLKWMGWINTYSGVPRYVDDFKGRFALSLETSASTAYLQINNLKSEDTATYFCVREGYSYYGSSFHTMDYWGQGTSVTVSS
VL: DIQMTQTPLTLSVTIGHPASISCKSSQSLLHTNGKIYLNWLLQRPGQSPKRLIYLVSKLDSGVPDRFSGSGSGTDFTLKISRVEAEDLGVYYCLQSTHFPQTFGGGTKLEIK
B5: anti-PEP3 mAb 8D5 (antibody, V domains shown)
VH: QVQLQQPGAELIEPGTSVKLSCKASGYTFTTYWMHWVKQRPGQGLEWIGMIHPNSGDTFYNENFKNKATLTVDISSSTVYMELSSLTSEDSAVYSCVKAGTGALDYWGQGTTLTVSS
VL: DVVMTQTPLSLPVSLGDQASISCRSSQSIVHSNRYTYLEWYLQRPGQSLKLLIYGVSNRFSGVPDRFSGSGSGTDFILKISRVEAEDMGVYYCFQGTHVPFTFGSGTKLEIK
B6: anti-PEP3 gp41 mAb 4G1 (antibody, V domains shown)
VL: B5 VL with P12C, S25T, R44K, S48P, V56I, S57A, I77T, F94L
V domain: QVQLQQPGAELVKPGASVKLSCKASGYIFRNYWMHWVKQRPGQGLEWIGMIHPNSDITHYNEKFKNRATLTVDKSSSTAYMQLNSLTSEDSAVYYCARGGLGVFDYWGQGTALRVSS

The first assay has as its target T2, HIV-1 MN gp41 recombinant protein produced in E. coli (565-771Delta642-725) (HIV-1 MN). Briefly: ELISA.
B1: the EC50 – broadly, the concentration giving half of the maximal effect – is 0.02 µg/mL.

Turning to B2, the EC50 came out at 0.3 µg/mL.

As for B3, the EC50 is more than 30 µg/mL.

Take B4: the EC50 was more than 13 µg/mL.

Take B5: the EC50 was found to be 0.02 µg/mL.

Consider B6, for which the EC50 turned out to be 0.005 µg/mL.

A further assay addresses T1, BSA-PEP3 peptide. Briefly: ELISA.
B1 showed an EC50 of 0.007 µg/mL.

B2 registered an EC50 of 0.02 µg/mL.

The molecule B3 yielded an EC50 of 0.02 µg/mL.

As for B4, the EC50 was determined as 0.015 µg/mL.

On to B5, for which the EC50 stood at 0.006 µg/mL.

The next assay deals with T3, HXB2 gp41 recombinant protein (a.a. 534-681) (UniProt P04578 534-681). Briefly: ELISA.
On to B1, for which the EC50 came out at 0.0044 µg/mL.

Take B2: the EC50 is 0.12 µg/mL.

Regarding B3, the EC50 is more than 137 µg/mL.

For B4, the EC50 is more than 20 µg/mL.

Consider B5, for which the EC50 is 0.0005 µg/mL.

A further assay has as its target T1, BSA-PEP3 peptide. Briefly: ELISA. This is another data set of the same source.
As to B1, the response was half-maximal at 0.007 µg/mL (EC50).

For the molecule B2, the EC50 amounted to 0.02 µg/mL.

B3 had an EC50 of 0.02 µg/mL.

B4 had an EC50 of 0.015 µg/mL.

In the case of B5, the EC50 is 0.006 µg/mL.

A further assay deals with T4, HIV-1 MN gp41 (a.a. 542-666) produced in S2 cells (UniProt P05877 542-666). Briefly: ELISA. In general terms: In an ELISA, binding on a coated surface is turned into a signal by an enzyme label.
Consider B1, for which it took 0.78 µg/mL to reach a half-maximal effect (EC50).

Take B2: the EC50 was more than 11 µg/mL.

As to B3, the EC50 is more than 700 µg/mL.

B4 gave an EC50 of more than 19 µg/mL.

Molecule B5 came in with an EC50 of 0.09 µg/mL.

For the next assay, the target named is T3, HXB2 gp41 recombinant protein (a.a. …). Briefly: ELISA; curve not in saturation.
In the case of B3, the EC50 is more than 137 µg/mL.

Take B4: the EC50 was more than 20 µg/mL.

The next assay has as its target T4, HIV-1 MN gp41 (a.a. 542-666) produced …. Briefly: ELISA; curve not in saturation.
In turn, B2 displayed an EC50 of more than 11 µg/mL.

Molecule B3 had an EC50 of more than 700 µg/mL.

Consider B4, for which the EC50 is more than 19 µg/mL.

The next assay deals with T3, HXB2 gp41 recombinant protein (a.a. …). Briefly: sandwich ELISA; capture Ab.
For the molecule B1, the EC50 is 0.0098 µg/mL.

Consider B2, for which the EC50 stood at 0.355 µg/mL.

For the molecule B5, the EC50 was 0.018 µg/mL.

Another assay deals with T2, HIV-1 MN gp41 recombinant protein …. Briefly: ELISA. The source holds these as a separate data set.
Turning to B1, the EC50 came out at 0.02 µg/mL.

Take B2: the EC50 amounted to 0.3 µg/mL.

As for B3, the EC50 was more than 30 µg/mL.

On to B4, for which the EC50 is more than 13 µg/mL.

For the molecule B5, the EC50 was 0.02 µg/mL.

As to B6, the EC50 was 0.005 µg/mL.

Another assay concerns the target T3, HXB2 gp41 recombinant protein (a.a. …). Briefly: ELISA. The source holds these as a separate data set.
Consider B1, for which the EC50 stood at 0.0044 µg/mL.

With B2, the EC50 was 0.12 µg/mL.

With B5, the EC50 was found to be 0.0005 µg/mL.

The target in the next assay is T4, HIV-1 MN gp41 (a.a. 542-666) produced …. Briefly: ELISA. This is another data set of the same source.
The molecule B1 displayed an EC50 of 0.78 µg/mL.

B5 gave an EC50 of 0.09 µg/mL.
